Data published in the Human Domainome abundance scans (Beltran et al. 2025).
± gives the uncertainty stated by the source.

B1: Zinc finger homeobox protein 3, residues 2147 to 2202; numbered along this chain, Q15911 (parent)
chain: RPRTRITDDQLRVLRQYFDINNSPSEEQIKEMADKSGLPQKVIKHWFRNTLFKERQ

Variants of: B1
Experiment: abundance fitness (aPCA) (normalised: wild type 0, dead -1); higher = more abundant; growth selection in yeast, the domain comes from the species named
Details: Homo sapiens

Going from RPRTRITDDQLRVLRQYFDINNSPSEEQIKEMADKGGLPQKVIKHWFRNTLFKERQ [S36G] to RPRTRITDDQLRVLRQYFDINNSPSEEQIKEMADKFGLPQKVIKHWFRNTLFKERQ [S36F], the abundance fitness rises from -0.449 ± 0.08 to -0.099 ± 0.1.

RPRTRITDDQLRVLRQYFDINNSPSEEQIKEMADKAGLPQKVIKHWFRNTLFKERQ [S36A] and RPRTRITDDQLRVLRQYFDINNSPSEEQIKEMADKHGLPQKVIKHWFRNTLFKERQ [S36H] are within error of each other in abundance fitness: 0.045 ± 0.086 for the first, -0.057 ± 0.12 for the second.

First: RPRTRITDDQLRVLRQYFDINNSPSEEQIKEMADKCGLPQKVIKHWFRNTLFKERQ [S36C]
Second: RPRTRITDDQLRVLRQYFDINNSPSEEQIKEMADKIGLPQKVIKHWFRNTLFKERQ [S36I]
The abundance fitness of the first is lower: -0.156 ± 0.1 for the first, 0.078 ± 0.12 for the second.

Going from RPRTRITDDQLRVLRQYFDINNSPSEEQIKEMADKDGLPQKVIKHWFRNTLFKERQ [S36D] to RPRTRITDDQLRVLRQYFDINNSPSEEQIKEMADKEGLPQKVIKHWFRNTLFKERQ [S36E], the abundance fitness rises from -0.669 ± 0.16 to -0.14 ± 0.11.

First: RPRTRITDDQLRVLRQYFDINNSPSEEQIKEMADKKGLPQKVIKHWFRNTLFKERQ [S36K]
Second: RPRTRITDDQLRVLRQYFDINNSPSEEQIKEMSDKSGLPQKVIKHWFRNTLFKERQ [A33S]
The abundance fitness of the first is lower: -0.706 ± 0.12 for the first, -0.054 ± 0.14 for the second.

RPRTRITDDQLRVLRQYFDINNSPSEEQIKEMNDKSGLPQKVIKHWFRNTLFKERQ [A33N] and RPRTRITDDQLRVLRQYFDINNSPSEEQIKEMCDKSGLPQKVIKHWFRNTLFKERQ [A33C] are within error of each other in abundance fitness: -0.21 ± 0.25 for the first, -0.158 ± 0.16 for the second.

Compared with RPRTRITDDQLRVLRQYFDINNSPSEEQIKEMWDKSGLPQKVIKHWFRNTLFKERQ [A33W], RPRTRITDDQLRVLRQYFDINNSPSEEQIKEMEDKSGLPQKVIKHWFRNTLFKERQ [A33E] is higher in abundance fitness: -0.556 ± 0.16 for the first, 0.038 ± 0.18 for the second.

First: RPRTRITDDQLRVLRQYFDINNSPSEEQIKEMRDKSGLPQKVIKHWFRNTLFKERQ [A33R]
Second: RPRTRITDDQLRVLRQYFDINNSPSEEQIKEMPDKSGLPQKVIKHWFRNTLFKERQ [A33P]
The abundance fitness of the first is higher: -0.163 ± 0.096 for the first, -0.908 ± 0.24 for the second.

Compared with RPRTRITDDQLRVLRQYFDINNSPSEEQIKEMDDKSGLPQKVIKHWFRNTLFKERQ [A33D], RPRTRITDDQLRVLRQYFDINNSPSEEQIKEMVDKSGLPQKVIKHWFRNTLFKERQ [A33V] is higher in abundance fitness: -0.879 ± 0.33 for the first, -0.186 ± 0.15 for the second.

RPRTRITDDQLRVLRQYFDINNSPSEEQIKEMGDKSGLPQKVIKHWFRNTLFKERQ [A33G] and RPRTRITDDQLRVLRQYFDINNSPSEEQIKEMQDKSGLPQKVIKHWFRNTLFKERQ [A33Q] are within error of each other in abundance fitness: -0.212 ± 0.12 for the first, -0.185 ± 0.22 for the second.

RPRTRITDDQLRVLRQYFDINNSPSEEQIKEMKDKSGLPQKVIKHWFRNTLFKERQ [A33K] and RPRTRITDDQLRVLRQYFDINNSPSEEQIKEMLDKSGLPQKVIKHWFRNTLFKERQ [A33L] are within error of each other in abundance fitness: -0.357 ± 0.2 for the first, -0.511 ± 0.15 for the second.

RPRTRITDDQLRVLRQYFDINNSPSEEQIKEMMDKSGLPQKVIKHWFRNTLFKERQ [A33M] and RPRTRITDDQLRVLRQYFDINNSPSEEQIKEMYDKSGLPQKVIKHWFRNTLFKERQ [A33Y] are within error of each other in abundance fitness: -0.083 ± 0.25 for the first, -0.299 ± 0.25 for the second.

RPRTRITDDQLRVLRQYFDINNSPSEEQIKEMHDKSGLPQKVIKHWFRNTLFKERQ [A33H] and RPRTRITDDQLRVLRQYFDINNSPSEEQIKEMAVKSGLPQKVIKHWFRNTLFKERQ [D34V] are within error of each other in abundance fitness: 0.254 ± 0.4 for the first, -0.063 ± 0.074 for the second.

Compared with RPRTRITDDQLRVLRQYFDINNSPSEEQIKEMAPKSGLPQKVIKHWFRNTLFKERQ [D34P], RPRTRITDDQLRVLRQYFDINNSPSEEQIKEMALKSGLPQKVIKHWFRNTLFKERQ [D34L] is higher in abundance fitness: -0.582 ± 0.11 for the first, -0.123 ± 0.081 for the second.

Compared with RPRTRITDDQLRVLRQYFDINNSPSEEQIKEMAEKSGLPQKVIKHWFRNTLFKERQ [D34E], RPRTRITDDQLRVLRQYFDINNSPSEEQIKEMAQKSGLPQKVIKHWFRNTLFKERQ [D34Q] is lower in abundance fitness: 0.207 ± 0.1 for the first, -0.112 ± 0.12 for the second.

RPRTRITDDQLRVLRQYFDINNSPSEEQIKEMATKSGLPQKVIKHWFRNTLFKERQ [D34T] and RPRTRITDDQLRVLRQYFDINNSPSEEQIKEMAKKSGLPQKVIKHWFRNTLFKERQ [D34K] are within error of each other in abundance fitness: 0.053 ± 0.11 for the first, 0.02 ± 0.13 for the second.

RPRTRITDDQLRVLRQYFDINNSPSEEQIKEMAWKSGLPQKVIKHWFRNTLFKERQ [D34W] and RPRTRITDDQLRVLRQYFDINNSPSEEQIKEMAYKSGLPQKVIKHWFRNTLFKERQ [D34Y] are within error of each other in abundance fitness: -0.318 ± 0.093 for the first, -0.253 ± 0.12 for the second.

RPRTRITDDQLRVLRQYFDINNSPSEEQIKEMAGKSGLPQKVIKHWFRNTLFKERQ [D34G] and RPRTRITDDQLRVLRQYFDINNSPSEEQIKEMAIKSGLPQKVIKHWFRNTLFKERQ [D34I] are within error of each other in abundance fitness: -0.011 ± 0.07 for the first, -0.088 ± 0.19 for the second.

RPRTRITDDQLRVLRQYFDINNSPSEEQIKEMAHKSGLPQKVIKHWFRNTLFKERQ [D34H] and RPRTRITDDQLRVLRQYFDINNSPSEEQIKEMAMKSGLPQKVIKHWFRNTLFKERQ [D34M] are within error of each other in abundance fitness: 0.061 ± 0.19 for the first, -0.097 ± 0.11 for the second.

RPRTRITDDQLRVLRQYFDINNSPSEEQIKEMAAKSGLPQKVIKHWFRNTLFKERQ [D34A] and RPRTRITDDQLRVLRQYFDINNSPSEEQIKEMANKSGLPQKVIKHWFRNTLFKERQ [D34N] are within error of each other in abundance fitness: 0.071 ± 0.084 for the first, 0.082 ± 0.15 for the second.

RPRTRITDDQLRVLRQYFDINNSPSEEQIKEMARKSGLPQKVIKHWFRNTLFKERQ [D34R] and RPRTRITDDQLRVLRQYFDINNSPSEEQIKEMASKSGLPQKVIKHWFRNTLFKERQ [D34S] are within error of each other in abundance fitness: -0.086 ± 0.068 for the first, -0.002 ± 0.078 for the second.

RPRTRITDDQLRVLRQYFDINNSPSEEQIKEMACKSGLPQKVIKHWFRNTLFKERQ [D34C] and RPRTRITDDQLRVLRQYFDINNSPSEEQIKEMAFKSGLPQKVIKHWFRNTLFKERQ [D34F] are within error of each other in abundance fitness: -0.039 ± 0.1 for the first, 0.013 ± 0.18 for the second.

RPRTRITDDQLRVLRQYFDINNSPSEEQIKEMADMSGLPQKVIKHWFRNTLFKERQ [K35M] and RPRTRITDDQLRVLRQYFDINNSPSEEQIKEMADWSGLPQKVIKHWFRNTLFKERQ [K35W] are within error of each other in abundance fitness: -0.216 ± 0.11 for the first, -0.346 ± 0.092 for the second.

RPRTRITDDQLRVLRQYFDINNSPSEEQIKEMADESGLPQKVIKHWFRNTLFKERQ [K35E] gave an abundance fitness of -0.168 ± 0.11.
